Our source for the ELISA A450 values is patent publication US20200299384A1.

Residue numbers refer to the chain shown, from its start.

First the molecules themselves.
B1: WBP3311_2.306.4 (antibody, IgG2b, V domains shown)
VH: QVQLQQSGPELVKPGASVRISCKASGFAFTDYYIHWVKQRPGQGLEWIGWISPGNVNTKYNENFKGRATLTADLSSSTAYMQLSSLTSEDSAVYFCARDGYSLYYFDYWGQGTTLTVSS
VL: DIVMSQSPSSLTVSAGEKVTMSCKSSQSLLNSRTRKNYLAWYQQKPGQSPKLLIYWASTRQSGVPDRFTGSGSGTAFTLTISGVQAEDLAVYFCTQSHTLRTFGGGTKLEIK
B2: WBP331_2.488.33 (antibody, V domains shown)
VH: QVQLQQSGPELVKPGTSVKISCKASGFSFTNYYIHWVKQRPGQGPEWIGWIFPGTVNTKYNEKFKGKATLTADTSSNTAFMQLSSLTSADSAVYFCARDSVGIYYFDFWGLGTTLTVSS
VL: B1 VL with T12A, M21V, S32N, Q61E, A76D, G83S, F93Y, H98F, T99I
B3: WBP3311_2.383.47 (antibody, V domains shown)
VH: QVQLQQSGPELVKPGASVRISCKTSGFTFTNYYIHWVIQRPGQGLEWIGWISPENGNTKYNENFQDKATLTADISSSTAYMHLSSLTSEDSAVYFCARDGYSLYYFDYWGQGTTLTVSS
VL: B1 VL with T59I, Q61V, A76T, F93Y
B4: WBP3311_2.844.8 (antibody, V domains shown)
VH: B1 VH
VL: B1 VL with Q61E
B5: WBP3311_2.400.5 (antibody, V domains shown)
VH: QVQLQQSGPELVNPGASVKISCKASGYSFTNYYLHWVKQRPGQGLEWIGWIFPESDNTKYNEKLKGKATLTADTSSDTAYMHLSSLTFEDSAVYFCARDSVGNYFFDFWGQGTTLTVSS
VL: DIVMSQSPSSLAVSAGEKVTMRCKSSQSLVNNRTRKNYLAWYQQKPGQPPKLLIYWASTRESGVPDRFTGSGSGTDFTLTISSVQAEDLAVYYCAQSFILRTFGGGTKLEIK
B6: WBP3311_2.482.5 (antibody, V domains shown)
VH: QVQLQQSGPELVKPGSSVKISCKPSGYTFTTYYIHWVKQRPGQGLEWIGWIFPGSDNIKYNENFKDKATLTADTSSSTAYMQLSSLTSEDSAVYFCARDSVSRYYFDYWGQGTILTVSS
VL: B5 VL with R22S, N32D, Q48L, P49S

The target in this test is mouse CD3epsilon protein (mouse) (UniProt P22646). The test can be described thus: ELISA, antigen coated on plate.
Chain of mouse CD3epsilon protein (mouse) (P22646 22-108 limits assumed): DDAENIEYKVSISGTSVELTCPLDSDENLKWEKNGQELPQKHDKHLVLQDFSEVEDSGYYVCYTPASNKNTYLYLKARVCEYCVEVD
As for B1, the ELISA A450 worked out at 0.711 A450. The same measure for B2: 0.607 A450; for B3: 0.666 A450; for B4: 0.6 A450. The value for B5 was 0.709 A450; that for B6 was 0.61 A450.
